Measured values from PMC5599116.

Target: recombinant human CD62L (L-selectin) full extracellular region, native 1 signal sequence construct (human)
Experiment: SPR

- Kd: 55 µM
Substance: mucin from porcine stomach type II (PSM-II) (natural protein)
